Experimental data from US20210388087A1.
Substitutions are numbered along the chain they refer to. In names and notes the source's numbering stands. Values belong to the binder of their own block, whether it stands above or below them.

Legend:
[1] = target: Human CD3eg linker (human); test: SPR; fold vs parent H183/L072
Human CD137 ECD (human) = test: single mutant vs template dBBDu183H
Human CD137 ECD (human), sequence (chain, as listed by the source limits assumed): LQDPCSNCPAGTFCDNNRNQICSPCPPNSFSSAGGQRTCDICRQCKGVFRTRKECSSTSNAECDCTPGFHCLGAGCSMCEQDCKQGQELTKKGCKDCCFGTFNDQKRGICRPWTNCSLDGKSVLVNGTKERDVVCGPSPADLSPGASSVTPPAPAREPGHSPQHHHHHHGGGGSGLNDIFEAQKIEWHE

Human CD3eg linker (human), sequence (chain, as listed by the source limits assumed): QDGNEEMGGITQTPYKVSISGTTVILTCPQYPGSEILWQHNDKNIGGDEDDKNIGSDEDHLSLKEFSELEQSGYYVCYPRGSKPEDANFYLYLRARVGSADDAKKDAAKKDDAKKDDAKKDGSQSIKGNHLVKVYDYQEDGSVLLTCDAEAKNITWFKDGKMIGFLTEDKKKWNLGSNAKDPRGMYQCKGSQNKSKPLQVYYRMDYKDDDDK

B4: H183/L072 VH V100cP (antibody, name in Kabat numbering, V domains shown)
VH: QVQLVESGGGLVQPGRSLRLSCAASGFTFSNAWMHWVRQAPGKGLEWVAQIKDKGNAYAAYYAPSVKGRFTISRDDSKNSIYLQMNSLKTEDTAVYYCHYVHYASASTPLPAFGVDAWGQGTTVTVSS
VL: DIVMTQSPLSLPVTPGEPASISCQASQELVHMNRNTYLHWYQQKPGQAPRLLIYKVSNRFPGVPDRFSGSGSGTDFTLKISRVEAEDVGVYYCAQGTSVPFTFGQGTKLEIK
- fold change of affinity (Human CD137 ECD (human)): 0 fold

B6: H183/L072 VH I51W (antibody, name in Kabat numbering, V domains shown)
VH: B4 VH with I51W, P109V
VL: B4 VL
- fold change of affinity (Human CD137 ECD (human)): 0 fold

B10: H183/L072 VH A56F (antibody, name in Kabat numbering, V domains shown)
VH: B4 VH with A59F, P109V
VL: B4 VL
- fold change of affinity (Human CD137 ECD (human)): 0 fold

B11: H183/L072 VL H34I (antibody, name in Kabat numbering, V domains shown)
VH: B4 VH with P109V
VL: B4 VL with H39I
- fold change of affinity [1]: 0 fold

B12: H183/L072 VL H27dL (antibody, name in Kabat numbering, V domains shown)
VH: B4 VH with P109V
VL: B4 VL with H31L
- fold change of affinity [1]: 0 fold

B13: H183/L072 VL H27dM (antibody, name in Kabat numbering, V domains shown)
VH: B4 VH with P109V
VL: B4 VL with H31M
- fold change of affinity [1]: 0 fold

B14: H183/L072 VH I51R (antibody, name in Kabat numbering, V domains shown)
VH: B4 VH with I51R, P109V
VL: B4 VL
- fold change of affinity (Human CD137 ECD (human)): 0 fold

B15: H183/L072 VH F100gP (antibody, name in Kabat numbering, V domains shown)
VH: B4 VH with P109V, F113P
VL: B4 VL
- fold change of affinity (Human CD137 ECD (human)): 0 fold

B16: H183/L072 VL N28L (antibody, name in Kabat numbering, V domains shown)
VH: B4 VH with P109V
VL: B4 VL with N33L
- fold change of affinity [1]: 0 fold

B20: H183/L072 VH V100iP (antibody, name in Kabat numbering, V domains shown)
VH: B4 VH with P109V, V115P
VL: B4 VL
- fold change of affinity (Human CD137 ECD (human)): 0 fold

B21: H183/L072 VH W33F (antibody, name in Kabat numbering, V domains shown)
VH: B4 VH with W33F, P109V
VL: B4 VL
- fold change of affinity (Human CD137 ECD (human)): 0 fold

B22: H183/L072 VH Y55W (antibody, name in Kabat numbering, V domains shown)
VH: B4 VH with Y58W, P109V
VL: B4 VL
- fold change of affinity (Human CD137 ECD (human)): 0 fold

B23: H183/L072 VH I51F (antibody, name in Kabat numbering, V domains shown)
VH: B4 VH with I51F, P109V
VL: B4 VL
- fold change of affinity (Human CD137 ECD (human)): 0 fold

B24: H183/L072 VH D101P (antibody, name in Kabat numbering, V domains shown)
VH: B4 VH with P109V, D116P
VL: B4 VL
- fold change of affinity (Human CD137 ECD (human)): 0 fold

B25: H183/L072 VL Y32I (antibody, name in Kabat numbering, V domains shown)
VH: B4 VH with P109V
VL: B4 VL with Y37I
- fold change of affinity [1]: 0 fold

B27: H183/L072 VL Q24P (antibody, name in Kabat numbering, V domains shown)
VH: B4 VH with P109V
VL: B4 VL with Q24P
- fold change of affinity [1]: 0 fold

B28: H183/L072 VH D52aR (antibody, name in Kabat numbering, V domains shown)
VH: B4 VH with D53R, P109V
VL: B4 VL
- fold change of affinity (Human CD137 ECD (human)): 0 fold

B29: H183/L072 VL N28I (antibody, name in Kabat numbering, V domains shown)
VH: B4 VH with P109V
VL: B4 VL with N33I
- fold change of affinity [1]: 0 fold

B30: H183/L072 VH G100hP (antibody, name in Kabat numbering, V domains shown)
VH: B4 VH with P109V, G114P
VL: B4 VL
- fold change of affinity (Human CD137 ECD (human)): 0 fold

B31: H183/L072 VH S99P (antibody, name in Kabat numbering, V domains shown)
VH: B4 VH with S105P, P109V
VL: B4 VL
- fold change of affinity (Human CD137 ECD (human)): 0 fold

B33: H183/L072 VH Y55R (antibody, name in Kabat numbering, V domains shown)
VH: B4 VH with Y58R, P109V
VL: B4 VL
- fold change of affinity (Human CD137 ECD (human)): 0 fold

B34: H183/L072 VL L33I (antibody, name in Kabat numbering, V domains shown)
VH: B4 VH with P109V
VL: B4 VL with L38I
- fold change of affinity [1]: 0 fold

B35: H183/L072 VL Y32M (antibody, name in Kabat numbering, V domains shown)
VH: B4 VH with P109V
VL: B4 VL with Y37M
- fold change of affinity [1]: 0 fold

B36: H183/L072 VH K52W (antibody, name in Kabat numbering, V domains shown)
VH: B4 VH with K52W, P109V
VL: B4 VL
- fold change of affinity (Human CD137 ECD (human)): 0 fold

B37: H183/L072 VL N28M (antibody, name in Kabat numbering, V domains shown)
VH: B4 VH with P109V
VL: B4 VL with N33M
- fold change of affinity [1]: 0 fold

B38: H183/L072 VH T100bP (antibody, name in Kabat numbering, V domains shown)
VH: B4 VH with T108P, P109V
VL: B4 VL
- fold change of affinity (Human CD137 ECD (human)): 0 fold

B39: H183/L072 VH A32W (antibody, name in Kabat numbering, V domains shown)
VH: B4 VH with A32W, P109V
VL: B4 VL
- fold change of affinity (Human CD137 ECD (human)): 0 fold

B41: H183/L072 VH A57W (antibody, name in Kabat numbering, V domains shown)
VH: B4 VH with A60W, P109V
VL: B4 VL
- fold change of affinity (Human CD137 ECD (human)): 0 fold

B44: H183/L072 VH L100dP (antibody, name in Kabat numbering, V domains shown)
VH: B4 VH with P109V, L110P
VL: B4 VL
- fold change of affinity (Human CD137 ECD (human)): 0 fold

B45: H183/L072 VH H35W (antibody, name in Kabat numbering, V domains shown)
VH: B4 VH with H35W, P109V
VL: B4 VL
- fold change of affinity (Human CD137 ECD (human)): 0 fold

B46: H183/L072 VL V27cP (antibody, name in Kabat numbering, V domains shown)
VH: B4 VH with P109V
VL: B4 VL with V30P
- fold change of affinity [1]: 0 fold

Results, then the binder that gave them:

- fold change of affinity [1]: 0 fold
B1: H183/L072 VL H27dA (antibody, name in Kabat numbering, V domains shown)
VH: B4 VH with P109V
VL: B4 VL with H31A

- fold change of affinity (Human CD137 ECD (human)): 0 fold
B2: H183/L072 VH D52aW (antibody, name in Kabat numbering, V domains shown)
VH: B4 VH with D53W, P109V
VL: B4 VL

- fold change of affinity (Human CD137 ECD (human)): 0 fold
B3: H183/L072 VH D52aF (antibody, name in Kabat numbering, V domains shown)
VH: B4 VH with D53F, P109V
VL: B4 VL

- fold change of affinity [1]: 0 fold
B5: H183/L072 VL H27dI (antibody, name in Kabat numbering, V domains shown)
VH: B4 VH with P109V
VL: B4 VL with H31I

- fold change of affinity (Human CD137 ECD (human)): 0 fold
B7: H183/L072 VH M34W (antibody, name in Kabat numbering, V domains shown)
VH: B4 VH with M34W, P109V
VL: B4 VL

- fold change of affinity [1]: 0 fold
B8: H183/L072 VL H34M (antibody, name in Kabat numbering, V domains shown)
VH: B4 VH with P109V
VL: B4 VL with H39M

- fold change of affinity (Human CD137 ECD (human)): 0 fold
B9: H183/L072 VH K52F (antibody, name in Kabat numbering, V domains shown)
VH: B4 VH with K52F, P109V
VL: B4 VL

- fold change of affinity (Human CD137 ECD (human)): 0 fold
B17: H183/L072 VH S100aP (antibody, name in Kabat numbering, V domains shown)
VH: B4 VH with S107P, P109V
VL: B4 VL

- fold change of affinity (Human CD137 ECD (human)): 0 fold
B18: H183/L072 VH A102P (antibody, name in Kabat numbering, V domains shown)
VH: B4 VH with P109V, A117P
VL: B4 VL

- fold change of affinity [1]: 0 fold
B19: H183/L072 VL A25L (antibody, name in Kabat numbering, V domains shown)
VH: B4 VH with P109V
VL: B4 VL with A25L

- fold change of affinity (Human CD137 ECD (human)): 0 fold
B26: H183/L072 VH N53W (antibody, name in Kabat numbering, V domains shown)
VH: B4 VH with N56W, P109V
VL: B4 VL

- fold change of affinity [1]: 0 fold
B32: H183/L072 VL H27dP (antibody, name in Kabat numbering, V domains shown)
VH: B4 VH with P109V
VL: B4 VL with H31P

- fold change of affinity (Human CD137 ECD (human)): 0 fold
B40: H183/L072 VH N53R (antibody, name in Kabat numbering, V domains shown)
VH: B4 VH with N56R, P109V
VL: B4 VL

- fold change of affinity [1]: 0 fold
B42: H183/L072 VL T31M (antibody, name in Kabat numbering, V domains shown)
VH: B4 VH with P109V
VL: B4 VL with T36M

- fold change of affinity (Human CD137 ECD (human)): 0 fold
B43: H183/L072 VH N53F (antibody, name in Kabat numbering, V domains shown)
VH: B4 VH with N56F, P109V
VL: B4 VL

- fold change of affinity [1]: 0 fold
B47: H183/L072 VL Q27P (antibody, name in Kabat numbering, V domains shown)
VH: B4 VH with P109V
VL: B4 VL with Q27P
